Results from publication PMC2953525, “Subtle Alterations in PCNA-Partner Interactions Severely Impair DNA Replication and Repair” (PLoS Biology, 2010).
Residue numbers refer to the chain shown, from its start.

What was measured:
[1] = system: mutated Rad30 PIP peptide; test: Yeast surface display of PCNA, PIP peptide binding by flow cytometry; details: peptide with the two conserved phenylalanines mutated to alanine
Description: (§1) Briefly, EBY100 transformed with plasmid pCTCON-PCNA were grown in SDCAA media to logarithmic phase and 2×10^6 of cells were washed, resuspended in SGCAA induction media, and grown at 20°C with shaking for an additional 18 h. Induced cells (1×10^6) were collected by centrifugation, washed with PBSF (PBS+ 1 g/L BSA), and incubated for 1 h at 25°C with mouse α-Myc antibodies (Santa Cruz Biotechnology, 1 µl/50 µl PBSF) and 100–400 µM of biotinylated PIP peptide (Peptron, see Figure S1 for peptide sequences). […] The labeled cells were washed, resuspended with PBSF, and analyzed by flow cytometry (FACS Calibur, BD).
(§2) Supplementary file pbio.1000507.s003.pdf: Figure S3 Yeast surface display of PCNA. […] Expression is detected through fluorescent antibody binding to the c-Myc epitope tag (light blue) while binding of the biotinylated PIP peptide (orange) is detected using fluorescently-labeled streptavidin (green). […] The specificity of PCNA binding for PIP peptides was detected following incubation with biotinylated PIP peptide derived from Rad30 (B and D) and mutated Rad30 in which the two conserved phenylalanine residues of the PIP peptide are mutated to alanine (C), followed by incubation with allophycocyanin (APC)-labeled streptavidin (y-axis). […]

[2] = molecular target: T1, pol30-Rad30E2 (yeast, UniProt P15873 1-258, IDCL DIDADFLKIEEL to DDDWDFLKILEL); test: two-hybrid; quantitative Y2H: generation time of the YRG2 strains in liquid SC-Leu-Trp-His, given relative to cells expressing WT PCNA; average of at least 3 experiments; details: partners not purified
T1 construct: PCNA (POL30), yeast; source: yeast two-hybrid fusion (pAD-GAL4, strain YRG2)
T1 sequence: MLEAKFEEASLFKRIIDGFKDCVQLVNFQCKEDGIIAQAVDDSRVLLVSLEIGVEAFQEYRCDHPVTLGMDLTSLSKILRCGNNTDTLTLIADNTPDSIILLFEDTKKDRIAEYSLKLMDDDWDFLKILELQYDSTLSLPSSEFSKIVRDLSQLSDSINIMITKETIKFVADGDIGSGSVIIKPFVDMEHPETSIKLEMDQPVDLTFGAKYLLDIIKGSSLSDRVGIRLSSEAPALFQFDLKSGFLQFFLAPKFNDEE

[3] = molecular target: T2, pol30-Rad30E9 (yeast, UniProt P15873 1-258, IDCL DIDADFLKIEEL to DNDWDFLKIDEL); test: as above; details: partners not purified
T2 construct: PCNA (POL30), yeast; also called Pol30-Rad30E9p; source: yeast two-hybrid fusion (pAD-GAL4, strain YRG2)
T2 sequence: T1 sequence with D121N, L129D

[4] = molecular target: T3, pol30-Rad27E31 (yeast, UniProt P15873 1-258, IDCL DIDADFLKIEEL to DGDYDVLKIREL); test: as above; details: partners not purified
T3 construct: PCNA (POL30), yeast; source: yeast two-hybrid fusion (pAD-GAL4, strain YRG2)
T3 sequence: T1 sequence with D121G, W123Y, F125V, L129R

[5] = molecular target: T4, pol30-Rad27L1 (yeast, UniProt P15873 1-258, IDCL DIDADFLKIEEL to D––VDILKIGEL); test: as above; details: partners not purified
T4 construct: PCNA (POL30), yeast; two residues after the first aspartic acid of the IDCL are deleted; source: yeast two-hybrid fusion (pAD-GAL4, strain YRG2)
T4 sequence: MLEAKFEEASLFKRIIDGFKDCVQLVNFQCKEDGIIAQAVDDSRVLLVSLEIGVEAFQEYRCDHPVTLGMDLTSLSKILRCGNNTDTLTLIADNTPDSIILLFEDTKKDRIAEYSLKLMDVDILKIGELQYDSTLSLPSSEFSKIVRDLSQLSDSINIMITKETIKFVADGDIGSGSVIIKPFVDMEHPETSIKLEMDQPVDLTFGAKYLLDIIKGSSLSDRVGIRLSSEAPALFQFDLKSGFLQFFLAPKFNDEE

[6] = molecular target: T5, pol30-Pol32E9 (yeast, UniProt P15873 1-258, IDCL DIDADFLKIEEL to DNDVDSLKIIEL); test: two-hybrid; pAD-GAL4-PCNA WT or mutant (called bait) and pBD-GAL4-partner (called prey) in strain YRG2; 10-fold serial dilutions spotted on SC-Leu-Trp-His plates, 30°C, 3 d; growth similar to WT PCNA is denoted 1; details: partners not purified
T5 construct: PCNA (POL30), yeast; source: yeast two-hybrid fusion (pAD-GAL4, strain YRG2)
T5 sequence: T1 sequence with D121N, W123V, F125S, L129I

[7] = system: Rad30 PIP peptide; test: Yeast surface display of PCNA, PIP peptide binding by flow cytometry; details: biotinylated peptide, APC-streptavidin, compared with WT PCNA / Rad30 PIP peptide
Description: as §1, §2

## POL30: wild-type yeast PCNA (POL30), IDCL sequence DIDADFLKIEEL
[1]
  binding to a mutated Rad30 PIP peptide (yeast surface display): dramatic reduction in binding affinity

B1: Rad27 (natural protein, yeast, UniProt P26793 1-382, looked up)
chain: MGIKGLNAIISEHVPSAIRKSDIKSFFGRKVAIDASMSLYQFLIAVRQQDGGQLTNEAGETTSHLMGMFYRTLRMIDNGIKPCYVFDGKPPDLKSHELTKRSSRRVETEKKLAEATTELEKMKQERRLVKVSKEHNEEAQKLLGLMGIPYIIAPTEAEAQCAELAKKGKVYAAASEDMDTLCYRTPFLLRHLTFSEAKKEPIHEIDTELVLRGLDLTIEQFVDLCIMLGCDYCESIRGVGPVTALKLIKTHGSIEKIVEFIESGESNNTKWKIPEDWPYKQARMLFLDPEVIDGNEINLKWSPPKEKELIEYLCDDKKFSEERVKSGISRLKKGLKSGIQGRLDGFFQVVPKTKEQLAAAAKRAQENKKLNKNKNKVTKGRR
notes: Rad27 (endonuclease), yeast; also called pBD-Rad27; source: yeast two-hybrid fusion (pBD-GAL4, strain YRG2)
[2]
  fold change in affinity relative to WT PCNA (Y2H generation time): 0.4 fold
[3]
  fold change in affinity relative to WT PCNA (Y2H generation time): 0.5 fold
[4]
  fold change in affinity relative to WT PCNA (Y2H generation time): 1.5 fold
[5]
  fold change in affinity relative to WT PCNA (Y2H generation time): 1.7 fold
[6]
  fold change in affinity relative to WT PCNA (Y2H): 1.2 fold

B2: pol30-79: previously studied PCNA mutant with decreased partner binding, IDCL sequence DIDADFAKAEEL (protein)
chain: T1 sequence with D121I, W123A, L126A, I128A, L129E
modifications: left off: Gal4 activation domain, end not stated, kept
[7]
  binding to the Rad30 PIP peptide (yeast surface display): dramatic reduction in binding affinity
